PMC11667269 (Journal for Immunotherapy of Cancer, 2024)

What was measured:
[1] = molecular target: CD19 expressed on K562 cells (K562-CD19) (Homo sapiens, UniProt P15391); experiment: flow cytometry on cells
[2] = molecular target: human CD79b (hCD79b) immobilised for surface plasmon resonance (Homo sapiens, UniProt P40259); experiment: SPR
Sequence of human CD79b (hCD79b) immobilised for surface plasmon resonance (P40259 29-229): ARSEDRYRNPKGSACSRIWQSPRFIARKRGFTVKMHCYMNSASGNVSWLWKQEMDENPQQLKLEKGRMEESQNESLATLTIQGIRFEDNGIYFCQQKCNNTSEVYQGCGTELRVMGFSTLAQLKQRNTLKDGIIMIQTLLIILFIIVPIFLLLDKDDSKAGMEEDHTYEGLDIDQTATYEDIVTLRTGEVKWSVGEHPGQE

Sequence of CD19 expressed on K562 cells (K562-CD19) (P15391 20-556): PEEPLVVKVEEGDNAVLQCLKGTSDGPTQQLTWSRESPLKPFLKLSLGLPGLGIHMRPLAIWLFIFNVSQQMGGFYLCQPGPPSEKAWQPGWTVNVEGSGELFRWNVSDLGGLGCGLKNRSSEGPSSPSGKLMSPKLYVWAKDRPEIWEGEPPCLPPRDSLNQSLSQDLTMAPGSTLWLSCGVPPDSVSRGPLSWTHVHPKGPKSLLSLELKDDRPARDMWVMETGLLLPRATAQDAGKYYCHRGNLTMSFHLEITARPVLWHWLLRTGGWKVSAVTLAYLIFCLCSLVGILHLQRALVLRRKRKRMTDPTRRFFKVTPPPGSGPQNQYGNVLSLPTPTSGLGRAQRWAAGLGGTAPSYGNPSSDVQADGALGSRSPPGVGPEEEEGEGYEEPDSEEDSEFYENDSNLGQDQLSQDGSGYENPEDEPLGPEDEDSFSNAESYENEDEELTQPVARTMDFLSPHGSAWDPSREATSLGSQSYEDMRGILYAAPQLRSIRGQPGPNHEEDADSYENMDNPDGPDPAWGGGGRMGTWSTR

B1: CARLY2 monoclonal murine antibody against CD79b (mouse monoclonal IgG1 CD79b.1.50) (antibody, V domains shown)
VH: QVQLQQPGAELVRPGASVKLSCKASGYTFTTYWMNWVKQRPGQGLEWIGMIDPSDSETHYNQMFKDKATLTVDKSSTTAYMQLSSLTSEDSAVYYCARTLSYWGQGTLVTVSA
VL: not shown
B1: no binding [1]; binds [2].
